Experimental data from patent US20170355766A1 (Xencor, published 2017).

T1: FcγRIIaR (human, UniProt P12318)
T1 construct: recombinant receptor protein with 6xHis and GST tags; also called R131 FcγRIIa
T1 sequence (receptor, looked up): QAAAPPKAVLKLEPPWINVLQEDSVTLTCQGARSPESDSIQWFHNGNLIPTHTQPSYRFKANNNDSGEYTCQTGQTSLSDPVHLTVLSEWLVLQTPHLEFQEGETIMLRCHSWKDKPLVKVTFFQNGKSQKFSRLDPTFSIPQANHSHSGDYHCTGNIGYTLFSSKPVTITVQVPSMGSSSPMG

T2: human H131 FcγRIIa receptor protein (6xHis and GST tags) (human, UniProt P12318 34-217, limits assumed)
T2 construct: also called HIIa
T2 sequence (looked up): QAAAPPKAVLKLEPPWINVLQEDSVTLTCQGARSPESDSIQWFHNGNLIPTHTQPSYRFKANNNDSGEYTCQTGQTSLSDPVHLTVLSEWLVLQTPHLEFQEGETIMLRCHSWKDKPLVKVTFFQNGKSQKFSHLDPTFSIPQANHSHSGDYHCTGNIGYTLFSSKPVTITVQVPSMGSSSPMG

T3: human FcγRIIb receptor protein (R&D Systems) (human, UniProt P31994 46-217)
T3 construct: Analyte injected over antibodies captured on a protein A/G chip (Biacore); also called CD32b
T3 sequence (looked up): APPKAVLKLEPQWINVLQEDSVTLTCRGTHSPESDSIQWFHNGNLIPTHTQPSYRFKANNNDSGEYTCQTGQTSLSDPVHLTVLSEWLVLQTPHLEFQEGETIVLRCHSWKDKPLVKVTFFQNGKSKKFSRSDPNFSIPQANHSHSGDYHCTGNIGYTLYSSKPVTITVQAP


Assays:
Test in all cases: SPR (Biacore)
[1] = biological target: T4, human V158 FcγRIIIa receptor protein (6xHis and GST tags) (human, UniProt P08637 17-208, limits assumed)
T4 construct: also called VIIIa

FcγRIIaR = biological target: T1, FcγRIIaR
[2] = biological target: T2, human H131 FcγRIIa receptor protein …
[3] = biological target: T5, human FcγRI receptor protein (R&D Systems) (human, UniProt P12314 16-288)
T5 construct: also called CD64

[4] = biological target: T3, human FcγRIIb receptor protein (R&D …)

T4 sequence (P08637 17-208 F176V limits assumed): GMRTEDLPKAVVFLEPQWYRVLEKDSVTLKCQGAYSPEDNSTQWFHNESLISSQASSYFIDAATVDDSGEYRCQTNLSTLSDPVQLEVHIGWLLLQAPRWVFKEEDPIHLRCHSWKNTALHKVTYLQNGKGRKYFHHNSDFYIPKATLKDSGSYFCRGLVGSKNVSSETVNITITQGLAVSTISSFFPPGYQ
T5 sequence (P12314 16-288 limits assumed): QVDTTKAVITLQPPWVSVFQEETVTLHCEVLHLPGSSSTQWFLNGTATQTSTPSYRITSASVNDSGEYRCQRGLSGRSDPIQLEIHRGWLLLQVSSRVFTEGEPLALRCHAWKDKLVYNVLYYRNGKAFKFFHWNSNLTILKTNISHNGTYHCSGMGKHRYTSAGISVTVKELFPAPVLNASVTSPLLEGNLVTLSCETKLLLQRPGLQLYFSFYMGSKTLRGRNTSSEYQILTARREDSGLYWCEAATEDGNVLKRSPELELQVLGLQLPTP

| Binder | binding result [1] | Fold FcγRIIaR (FcγRIIaR) [fold] | Fold FcγRIIaH [2] [fold] | Fold FcγRI [3] [fold] | Fold FcγRIIb [4] [fold] | Fold FcγRIIIaV [1] [fold] | binding result [2] | binding result [3] |
| --- | --- | --- | --- | --- | --- | --- | --- | --- |
| L235D/S267E/L328F (antibody, human IgG1, kappa, HuAM4G7 IgG1 Fc variant) heavy: EVQLVESGGGLVKPGGSLKLSCAASGYTFTSYVMHWVRQAPGKGLEWIGYINPYNDGTKYNEKFQGRVTISSDKSISTAYMELSSLRSEDTAMYYCARGTYYYGTRVFDYWGQGTLVTVSSASTKGPSVFPLAPSSKSTSGGTAALGCLVKDYFPEPVTVSWNSGALTSGVHTFPAVLQSSGLYSLSSVVTVPSSSLGTQTYICNVNHKPSNTKVDKKVEPKSCDKTHTCPPCPAPELDGGPSVFLFPPKPKDTLMISRTPEVTCVVVDVEHEDPEVKFNWYVDGVEVHNAKTKPREEQYNSTYRVVSVLTVLHQDWLNGKEYKCKVSNKAFPAPIEKTISKAKGQPREPQVYTLPPSREEMTKNQVSLTCLVKGFYPSDIAVEWESNGQPENNYKTTPPVLDSDGSFFLYSKLTVDKSRWQQGNVFSCSVMHEALHNHYTQKSLSLSPGK light: DIVMTQSPATLSLSPGERATLSCRSSKSLQNVNGNTYLYWFQQKPGQSPQLLIYRMSNLNSGVPDRFSGSGSGTEFTLTISSLEPEDFAVYYCMQHLEYPITFGAGTKLEIKRTVAAPSVFIFPPSDEQLKSGTASVVCLLNNFYPREAKVQWKVDNALQSGNSQESVTEQDSKDSTYSLSSTLTLSKADYEKHKVYACEVTHQGLSSPVTKSFNRGEC | no binding | 133 | 0.275 | 0.00057 | 80.4 |  |  |  |
| L235F/S267E (antibody, human IgG1, kappa, HuAM4G7 IgG1 Fc variant) heavy: not shown light: DIVMTQSPATLSLSPGERATLSCRSSKSLQNVNGNTYLYWFQQKPGQSPQLLIYRMSNLNSGVPDRFSGSGSGTEFTLTISSLEPEDFAVYYCMQHLEYPITFGAGTKLEIKRTVAAPSVFIFPPSDEQLKSGTASVVCLLNNFYPREAKVQWKVDNALQSGNSQESVTEQDSKDSTYSLSSTLTLSKADYEKHKVYACEVTHQGLSSPVTKSFNRGEC | no binding | 32.5 | 0.402 | 0.0176 | 28.4 |  |  |  |
| L235Y/S267E/H268E (antibody, human IgG1, kappa, HuAM4G7 IgG1 Fc variant) heavy: EVQLVESGGGLVKPGGSLKLSCAASGYTFTSYVMHWVRQAPGKGLEWIGYINPYNDGTKYNEKFQGRVTISSDKSISTAYMELSSLRSEDTAMYYCARGTYYYGTRVFDYWGQGTLVTVSSASTKGPSVFPLAPSSKSTSGGTAALGCLVKDYFPEPVTVSWNSGALTSGVHTFPAVLQSSGLYSLSSVVTVPSSSLGTQTYICNVNHKPSNTKVDKKVEPKSCDKTHTCPPCPAPELYGGPSVFLFPPKPKDTLMISRTPEVTCVVVDVEEEDPEVKFNWYVDGVEVHNAKTKPREEQYNSTYRVVSVLTVLHQDWLNGKEYKCKVSNKALPAPIEKTISKAKGQPREPQVYTLPPSREEMTKNQVSLTCLVKGFYPSDIAVEWESNGQPENNYKTTPPVLDSDGSFFLYSKLTVDKSRWQQGNVFSCSVMHEALHNHYTQKSLSLSPGK light: DIVMTQSPATLSLSPGERATLSCRSSKSLQNVNGNTYLYWFQQKPGQSPQLLIYRMSNLNSGVPDRFSGSGSGTEFTLTISSLEPEDFAVYYCMQHLEYPITFGAGTKLEIKRTVAAPSVFIFPPSDEQLKSGTASVVCLLNNFYPREAKVQWKVDNALQSGNSQESVTEQDSKDSTYSLSSTLTLSKADYEKHKVYACEVTHQGLSSPVTKSFNRGEC |  | 48.2 | 0.157 | 0.0103 | 69.9 | 0.428 |  |  |
| L235Y (antibody, human IgG1, kappa, HuAM4G7 IgG1 Fc variant) heavy: not shown light: DIVMTQSPATLSLSPGERATLSCRSSKSLQNVNGNTYLYWFQQKPGQSPQLLIYRMSNLNSGVPDRFSGSGSGTEFTLTISSLEPEDFAVYYCMQHLEYPITFGAGTKLEIKRTVAAPSVFIFPPSDEQLKSGTASVVCLLNNFYPREAKVQWKVDNALQSGNSQESVTEQDSKDSTYSLSSTLTLSKADYEKHKVYACEVTHQGLSSPVTKSFNRGEC |  | 1.28 | 1.35 | 0.00232 | 1.05 | 0.504 |  |  |
| L235I (antibody, human IgG1, kappa, HuAM4G7 IgG1 Fc variant) heavy: not shown light: DIVMTQSPATLSLSPGERATLSCRSSKSLQNVNGNTYLYWFQQKPGQSPQLLIYRMSNLNSGVPDRFSGSGSGTEFTLTISSLEPEDFAVYYCMQHLEYPITFGAGTKLEIKRTVAAPSVFIFPPSDEQLKSGTASVVCLLNNFYPREAKVQWKVDNALQSGNSQESVTEQDSKDSTYSLSSTLTLSKADYEKHKVYACEVTHQGLSSPVTKSFNRGEC |  | 0.666 | 0.181 | 0.0197 | 0.908 | 0.903 |  |  |
| L235Y/G236D/S267E (antibody, human IgG1, kappa, HuAM4G7 IgG1 Fc variant) heavy: EVQLVESGGGLVKPGGSLKLSCAASGYTFTSYVMHWVRQAPGKGLEWIGYINPYNDGTKYNEKFQGRVTISSDKSISTAYMELSSLRSEDTAMYYCARGTYYYGTRVFDYWGQGTLVTVSSASTKGPSVFPLAPSSKSTSGGTAALGCLVKDYFPEPVTVSWNSGALTSGVHTFPAVLQSSGLYSLSSVVTVPSSSLGTQTYICNVNHKPSNTKVDKKVEPKSCDKTHTCPPCPAPELYDGPSVFLFPPKPKDTLMISRTPEVTCVVVDVEHEDPEVKFNWYVDGVEVHNAKTKPREEQYNSTYRVVSVLTVLHQDWLNGKEYKCKVSNKALPAPIEKTISKAKGQPREPQVYTLPPSREEMTKNQVSLTCLVKGFYPSDIAVEWESNGQPENNYKTTPPVLDSDGSFFLYSKLTVDKSRWQQGNVFSCSVMHEALHNHYTQKSLSLSPGK light: DIVMTQSPATLSLSPGERATLSCRSSKSLQNVNGNTYLYWFQQKPGQSPQLLIYRMSNLNSGVPDRFSGSGSGTEFTLTISSLEPEDFAVYYCMQHLEYPITFGAGTKLEIKRTVAAPSVFIFPPSDEQLKSGTASVVCLLNNFYPREAKVQWKVDNALQSGNSQESVTEQDSKDSTYSLSSTLTLSKADYEKHKVYACEVTHQGLSSPVTKSFNRGEC | no binding | 9.67 |  |  | 25 |  | no binding | no binding |
| L235Y/S239D/S267E (antibody, human IgG1, kappa, HuAM4G7 IgG1 Fc variant) heavy: EVQLVESGGGLVKPGGSLKLSCAASGYTFTSYVMHWVRQAPGKGLEWIGYINPYNDGTKYNEKFQGRVTISSDKSISTAYMELSSLRSEDTAMYYCARGTYYYGTRVFDYWGQGTLVTVSSASTKGPSVFPLAPSSKSTSGGTAALGCLVKDYFPEPVTVSWNSGALTSGVHTFPAVLQSSGLYSLSSVVTVPSSSLGTQTYICNVNHKPSNTKVDKKVEPKSCDKTHTCPPCPAPELYGGPDVFLFPPKPKDTLMISRTPEVTCVVVDVEHEDPEVKFNWYVDGVEVHNAKTKPREEQYNSTYRVVSVLTVLHQDWLNGKEYKCKVSNKALPAPIEKTISKAKGQPREPQVYTLPPSREEMTKNQVSLTCLVKGFYPSDIAVEWESNGQPENNYKTTPPVLDSDGSFFLYSKLTVDKSRWQQGNVFSCSVMHEALHNHYTQKSLSLSPGK light: DIVMTQSPATLSLSPGERATLSCRSSKSLQNVNGNTYLYWFQQKPGQSPQLLIYRMSNLNSGVPDRFSGSGSGTEFTLTISSLEPEDFAVYYCMQHLEYPITFGAGTKLEIKRTVAAPSVFIFPPSDEQLKSGTASVVCLLNNFYPREAKVQWKVDNALQSGNSQESVTEQDSKDSTYSLSSTLTLSKADYEKHKVYACEVTHQGLSSPVTKSFNRGEC |  | 98.9 | 1.05 | 1.07 | 116 | 2.6 |  |  |
| L235Y/S267E/L328F (antibody, human IgG1, kappa, HuAM4G7 IgG1 Fc variant) heavy: EVQLVESGGGLVKPGGSLKLSCAASGYTFTSYVMHWVRQAPGKGLEWIGYINPYNDGTKYNEKFQGRVTISSDKSISTAYMELSSLRSEDTAMYYCARGTYYYGTRVFDYWGQGTLVTVSSASTKGPSVFPLAPSSKSTSGGTAALGCLVKDYFPEPVTVSWNSGALTSGVHTFPAVLQSSGLYSLSSVVTVPSSSLGTQTYICNVNHKPSNTKVDKKVEPKSCDKTHTCPPCPAPELYGGPSVFLFPPKPKDTLMISRTPEVTCVVVDVEHEDPEVKFNWYVDGVEVHNAKTKPREEQYNSTYRVVSVLTVLHQDWLNGKEYKCKVSNKAFPAPIEKTISKAKGQPREPQVYTLPPSREEMTKNQVSLTCLVKGFYPSDIAVEWESNGQPENNYKTTPPVLDSDGSFFLYSKLTVDKSRWQQGNVFSCSVMHEALHNHYTQKSLSLSPGK light: DIVMTQSPATLSLSPGERATLSCRSSKSLQNVNGNTYLYWFQQKPGQSPQLLIYRMSNLNSGVPDRFSGSGSGTEFTLTISSLEPEDFAVYYCMQHLEYPITFGAGTKLEIKRTVAAPSVFIFPPSDEQLKSGTASVVCLLNNFYPREAKVQWKVDNALQSGNSQESVTEQDSKDSTYSLSSTLTLSKADYEKHKVYACEVTHQGLSSPVTKSFNRGEC | no binding | 171 | 0.758 | 0.00436 | 187 |  |  |  |
